Earlier results on 1 substance are cited in article PMC3121775.

pKd: −log10 of the molar value.

In this data set the target is Harakiri BH3 peptide BH3 (Homo sapiens) (UniProt O00198). In words: fluorescence.

Sequence of Bcl-xL (Q07817 whole entry): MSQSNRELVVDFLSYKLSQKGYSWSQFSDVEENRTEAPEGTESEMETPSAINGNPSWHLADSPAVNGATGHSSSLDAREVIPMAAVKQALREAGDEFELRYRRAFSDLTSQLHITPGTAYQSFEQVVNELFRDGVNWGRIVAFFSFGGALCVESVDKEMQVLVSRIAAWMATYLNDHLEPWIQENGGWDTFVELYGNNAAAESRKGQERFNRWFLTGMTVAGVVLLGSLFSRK

On to Bcl-xL (from UniProt Q07817), for which the negative logarithm of the Kd (pKd) was 7.04.
